Substitutions are numbered along the chain they refer to. In names and notes the source's numbering stands.
B1: mAb3 (Y32K) (antibody, human IgG2, kappa, V domains shown)
VH: QVQLVQSGAEVKKPGASVKVSCKASGYTFTGKYMHWVRQAPGQGLEWMGWINPDSGGTNYAQKFQGRVTMTRDTSISTAYMELNRLRSDDTAVYYCARDQPLGYCTNGVCSYFDYWGQGTLVTVSS
VL: DIQMTQSPSSVSASVGDRVTITCRASQGIYSWLAWYQQKPGKAPNLLIYTASTLQSGVPSRFSGSGSGTDFTLTISSLQPEDFATYYCQQANIFPLTFGGGTKVEIKR
notes: Mutant of AbC1 with the same constant regions (IgG2)
B2: AbC1 (antibody, human IgG2, kappa, V domains shown)
VH: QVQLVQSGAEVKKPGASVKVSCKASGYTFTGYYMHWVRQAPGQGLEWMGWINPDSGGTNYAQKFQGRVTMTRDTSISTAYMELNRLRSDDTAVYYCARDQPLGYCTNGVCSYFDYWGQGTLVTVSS
VL: B1 VL
notes: Human IgG2; also called parental antibody; parental AbC1 antibody
B3: mAb1 (Y32K/S77A) (antibody, human IgG2, kappa)
heavy: QVQLVQSGAEVKKPGASVKVSCKASGYTFTGKYMHWVRQAPGQGLEWMGWINPDSGGTNYAQKFQGRVTMTRDTSIATAYMELNRLRSDDTAVYYCARDQPLGYCTNGVCSYFDYWGQGTLVTVSSASTKGPSVFPLAPCSRSTSESTAALGCLVKDYFPEPVTVSWNSGALTSGVHTFPAVLQSSGLYSLSSVVTVPSSNFGTQTYTCNVDHKPSNTKVDKTVERKCCVECPPCPAPPVAGPSVFLFPPKPKDTLMISRTPEVTCVVVDVSHEDPEVQFNWYVDGVEVHNAKTKPREEQFNSTFRVVSVLTVVHQDWLNGKEYKCKVSNKGLPAPIEKTISKTKGQPREPQVYTLPPSREEMTKNQVSLTCLVKGFYPSDIAVEWESNGQPENNYKTTPPMLDSDGSFFLYSKLTVDKSRWQQGNVFSCSVMHEALHNHYTQKSLSLSPGK
light: DIQMTQSPSSVSASVGDRVTITCRASQGIYSWLAWYQQKPGKAPNLLIYTASTLQSGVPSRFSGSGSGTDFTLTISSLQPEDFATYYCQQANIFPLTFGGGTKVEIKRTVAAPSVFIFPPSDEQLKSGTASVVCLLNNFYPREAKVQWKVDNALQSGNSQESVTEQDSKDSTYSLSSTLTLSKADYEKHKVYACEVTHQGLSSPVTKSFNRGEC
notes: Mutant of AbC1 with the same constant regions (IgG2); also called mAb1 double mutant; mAb1 (without masking moiety)
B4: mAb2 (Y32K/S77P) (antibody, human IgG2, kappa, V domains shown)
VH: B1 VH with S77P
VL: B1 VL
notes: as for B1

Key:
[1] = target: rhesus CD40 on HEK293H reporter cells (rhesus, UniProt F6SNI1 21-278); test: cell-based or functional assay
human CD40 on cells [2] = target: T1, human CD40 on cells (human, UniProt P25942 21-277); test: cell-based or functional assay
T1 sequence (P25942 21-277 limits assumed): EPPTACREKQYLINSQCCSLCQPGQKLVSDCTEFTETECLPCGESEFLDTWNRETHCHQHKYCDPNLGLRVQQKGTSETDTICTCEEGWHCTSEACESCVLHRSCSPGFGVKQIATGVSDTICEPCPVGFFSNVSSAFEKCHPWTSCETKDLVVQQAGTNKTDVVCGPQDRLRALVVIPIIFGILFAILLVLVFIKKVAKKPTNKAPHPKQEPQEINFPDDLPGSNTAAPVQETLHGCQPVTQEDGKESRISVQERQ

[3] = target: T2, cynomolgus CD40 on HEK293 cells (cynomolgus, UniProt G7PG38 21-278); test: flow cytometry on cynomolgus CD40-expressing HEK293 cells, 1 h at 4 °C, AF488-conjugated secondary antibody (MFI)
T2 construct: whole, on cells; also called cyno CD40; cynoCD40-expressing HEK293 cells
Description: Cyno CD40-expressing HEK293 cells were plated at a density of 50×10³ cells per well in 96-well plates and incubated with serially diluted concentrations of CD40 agonists, hexameric ligand and anti-CD40 antibodies, for 1 hour at 4° C. Cells were then harvested and incubated with AF488-conjugated secondary antibody before flow cytometry analysis using a Fortessa X20.
Data from the flow cytometer was analyzed using FlowJo (V10.8.1), then the binding curves, the Eₘₐₓ, and EC₅₀ values were plotted using GraphPad Prism (V9.1.2).

recombinant human CD40 = target: T3, recombinant human CD40 (human, UniProt P25942 21-193); test: SPR (Biacore 8K+), antibody captured on protein A/G, recombinant hCD40 as analyte, 1:1 model
T3 construct: Soluble analyte in SPR; also called Recombinant hCD40; hCD40
T3 sequence (P25942 21-193 limits assumed): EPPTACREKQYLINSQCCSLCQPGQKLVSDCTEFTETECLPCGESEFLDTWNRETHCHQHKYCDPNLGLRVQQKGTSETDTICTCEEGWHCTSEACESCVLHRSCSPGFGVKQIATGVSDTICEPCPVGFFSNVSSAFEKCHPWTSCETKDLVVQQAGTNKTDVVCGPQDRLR
Description: Protein A/G was immobilized to the surface of a CM5 series S chip using amine chemistry. Test compounds were then captured to the surface between 120 RU and 170 RU. Recombinant hCD40 was diluted 2-fold from 300 nM to 2.34 nM in HBS-EP+buffer. […] Glycine (10 mM) pH 1.5 was used to regenerate the chip surface. The binding affinity (KD) was determine using a 1:1-binding model by a global fit of all the concentrations.

human CD40 on cells [4] = target: T1, human CD40 on cells; test: flow cytometry on human primary naive B-cells, 1 h at 4 °C, AF488-conjugated secondary antibody (MFI)
Description: (§1) Naive B-cell were plated at a density of […] cells per well in 96-well plates and incubated with CD40 agonists, hexameric ligand and anti-CD40 antibodies, for 1 hour at 4° C.

human CD40 on cells [5] = target: T1, human CD40 on cells; test: as above; remark: listed apart in the source
Description: as §1

human CD40 on cells [6] = target: T1, human CD40 on cells; test: cell-based or functional assay; remark: listed apart in the source
human CD40 on cells [7] = target: T1, human CD40 on cells; test: flow cytometry on U-2 OS/NFκB cells (further experiment), APC-conjugated anti-human IgG secondary antibody (median fluorescence intensity)
Description: (§2) Briefly, cultured U-2 OS/NFκB cells were seeded in 96-well plates at 1.0×10⁵ cells/well and incubated with serially-diluted test antibodies for 60 minutes at 4° C. in 2% FBS/dPBS buffer. The cells were then washed twice with dPBS and further incubated with secondary allophycocyanin (APC)-conjugated AffiniPure F(ab′)₂ fragment donkey anti-human IgG (H+L) antibody (Jackson ImmunoResearch, Ref. 709-136-149) (1:500) for 30 minutes at 4° C. Finally, the cells were washed twice with dPBS and suspended in FACS buffer for flow cytometry analysis. MFI values vs concentrations were analyzed by FlowJo and data were further fitted with four-parameter non-linear regression to get EC₅₀ values by GraphPad Prism software.

human CD40 on cells [8] = target: T1, human CD40 on cells; test: cell-based or functional assay; remark: listed apart in the source
human CD40 on cells [9] = target: T1, human CD40 on cells; test: cell-based or functional assay; remark: listed apart in the source
human CD40 on cells [10] = target: T1, human CD40 on cells; test: cell-based or functional assay; remark: listed apart in the source
human CD40 on cells [11] = target: T1, human CD40 on cells; test: flow cytometry on U-2 OS/NFκB cells; EC50 relative to mAb1
Description: as §2

human CD40 on cells [12] = target: T1, human CD40 on cells; test: flow cytometry on Raji cells; EC50 relative to mAb1
Description: as §2, with “Raji” for “cultured U-2 OS/NFκB”

human CD40 on cells [13] = target: T1, human CD40 on cells; test: flow cytometry on Raji cells; binding to Raji cells, flow cytometry
Description: as §2, with “Raji” for “cultured U-2 OS/NFκB”

human CD40 on cells [14] = target: T1, human CD40 on cells; test: flow cytometry on U-2 OS/NFκB cells
Description: as §2

Binder	EC50, luciferase reporter assay, HEK293H rhesus CD40 reporter cells [1]	Top, luciferase reporter assay, HEK293H rhesus CD40 reporter cells [1]	EC50, NFkB-luciferase reporter assay, human NFkB-Luc2P/U-2 OS cells (human CD40 on cells [2])	Top, NFkB-luciferase reporter assay, human NFkB-Luc2P/U-2 OS cells (human CD40 on cells [2])	EC50 (read off the curve) [3]	Kd (recombinant human CD40)	koff (recombinant human CD40)	kon (recombinant human CD40)	EC50 (read off the curve) (human CD40 on cells [4])	EC50 (read off the curve) (human CD40 on cells [5])	EC50, CD83 expression, MoDC maturation assay (human CD40 on cells [6])	EC50, IL-8 release, MoDC maturation assay (human CD40 on cells [6])	EC50 (read off the curve) (human CD40 on cells [7])	EC50, CD83 expression, B-cells of hCD40 KI mice (human CD40 on cells [8])	EC50, CD86 expression, B-cells of hCD40 KI mice (human CD40 on cells [8])	other results
B1	0.59 nM	3.54 nM	0.44 nM	48.9 nM	~2 nM	91 nM	0.0041 s⁻¹	45000 M⁻¹ s⁻¹	~5 nM	–	–	–	–	–	–	–
B2	0.09 nM	1.91 nM	1.43 nM	16.2 nM	~1 nM	18 nM	0.0019 s⁻¹	110000 M⁻¹ s⁻¹	~4 nM	~1 nM	1.02 nM	1.92 nM	~2 nM	0.034 nM	0.011 nM	–
B3	0.49 nM	3.91 nM	0.52 nM	53.6 nM	~2 nM	65 nM	0.0034 s⁻¹	52000 M⁻¹ s⁻¹	–	~2 nM	0.49 nM	0.21 nM	~2 nM	0.051 nM	0.031 nM	EC50, CD86 expression, primary human B-cell activation assay (human CD40 on cells [9]): 0.175 nM; Relative masking efficacy, CD86 expression, primary human B-cell activation assay (human CD40 on cells [9]): 1 fold; EC50, luciferase reporter assay in U-2 OS/NFκB cells (human CD40 on cells [10]): 0.238 nM; Relative masking efficacy, luciferase reporter assay in U-2 OS/NFκB cells (human CD40 on cells [10]): 1 fold; Relative masking efficacy (human CD40 on cells [11]): 1 fold; Relative masking efficacy (human CD40 on cells [12]): 1 fold; Relative masking efficacy, CD83 expression, B-cells of hCD40 KI mice (human CD40 on cells [8]): 1 fold; Relative masking efficacy, CD86 expression, B-cells of hCD40 KI mice (human CD40 on cells [8]): 1 fold; EC50 (human CD40 on cells [13]): 1.34 nM; EC50 (human CD40 on cells [14]): 1.5 nM
B4	–	–	0.54 nM	45.2 nM	–	–	–	–	–	~2 nM	–	–	–	–	–	–

— US20240279350A1 (Sanofi, published 2024)
